The values below are quoted from earlier work in patent US9233143B2, “Medicinal agent for preventing exacerbation of malignant tumor, comprising combination of natriuretic peptide receptor GC-A and GC-B agonists” (National Cerebral and Cardiovascular Center, priority 2011, dated 2016).

Bridge positions count the residues as written; N and C are the ends. Ends that are not written are not given here.

The data set addresses T1, natriuretic peptide receptor GC-B (Homo sapiens, UniProt P20594).
T1 sequence (P20594 23-1047): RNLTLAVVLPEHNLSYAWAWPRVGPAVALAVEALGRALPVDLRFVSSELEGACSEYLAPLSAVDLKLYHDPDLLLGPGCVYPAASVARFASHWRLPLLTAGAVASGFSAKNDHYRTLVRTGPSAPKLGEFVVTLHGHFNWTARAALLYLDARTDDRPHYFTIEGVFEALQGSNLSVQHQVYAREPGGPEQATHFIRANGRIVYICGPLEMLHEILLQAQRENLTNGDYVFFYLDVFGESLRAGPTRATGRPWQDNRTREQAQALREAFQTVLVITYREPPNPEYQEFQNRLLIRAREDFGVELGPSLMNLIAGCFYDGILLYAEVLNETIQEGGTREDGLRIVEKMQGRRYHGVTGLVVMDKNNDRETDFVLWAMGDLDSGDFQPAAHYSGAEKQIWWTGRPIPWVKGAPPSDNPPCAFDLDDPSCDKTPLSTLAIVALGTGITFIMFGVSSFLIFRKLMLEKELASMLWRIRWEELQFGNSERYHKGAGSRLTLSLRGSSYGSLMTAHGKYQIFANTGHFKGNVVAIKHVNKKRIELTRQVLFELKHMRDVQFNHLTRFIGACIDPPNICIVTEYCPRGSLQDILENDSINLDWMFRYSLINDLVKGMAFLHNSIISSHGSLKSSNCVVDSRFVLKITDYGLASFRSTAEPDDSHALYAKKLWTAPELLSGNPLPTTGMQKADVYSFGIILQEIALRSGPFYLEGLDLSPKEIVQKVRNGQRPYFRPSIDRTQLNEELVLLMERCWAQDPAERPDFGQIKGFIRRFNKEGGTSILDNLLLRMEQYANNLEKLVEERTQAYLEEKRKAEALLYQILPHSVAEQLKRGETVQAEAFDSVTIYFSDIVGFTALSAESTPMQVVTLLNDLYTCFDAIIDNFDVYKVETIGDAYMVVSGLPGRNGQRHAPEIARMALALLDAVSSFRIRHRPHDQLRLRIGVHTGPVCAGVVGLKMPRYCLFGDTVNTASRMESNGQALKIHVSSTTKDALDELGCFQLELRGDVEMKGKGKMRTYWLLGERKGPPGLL
Particulars: literature reports; cited from earlier work.

Consider “hCNP6-22: a peptide consisting of amino acids from position 6 to position 22 of SEQ ID NO: 7 (only the ring structure) (CFGLKLDRIGSMSGLGC; disulfide 1-17 (inferred); listed as Homo sapiens)”, for which the GC-B agonist activity result is “comparable to that of hCNP-22”.
